What was measured:
[1] = target: A5 domain (immobilized acceptor on the IAsys biosensor) (UniProt P08648); assay: optical biosensor (IAsys), A5 immobilized, Kd = koff/kon
[2] = target: T1, recombinant α5β1 integrin (immobilized, ELISA) (UniProt P08648 42-995; P05556 21-728); assay: ELISA, DV on immobilized recombinant α5β1 integrin
T1 construct: also called a5b1 integrin

[3] = target: A5 domain (immobilized acceptor on the IAsys biosensor) (UniProt P08648); assay: optical biosensor (IAsys), A5 immobilized, free DV 8.0×10^-8 to 4.0×10^-7 M, global fit

T1 sequence (P08648 42-995, chain 1 of 2): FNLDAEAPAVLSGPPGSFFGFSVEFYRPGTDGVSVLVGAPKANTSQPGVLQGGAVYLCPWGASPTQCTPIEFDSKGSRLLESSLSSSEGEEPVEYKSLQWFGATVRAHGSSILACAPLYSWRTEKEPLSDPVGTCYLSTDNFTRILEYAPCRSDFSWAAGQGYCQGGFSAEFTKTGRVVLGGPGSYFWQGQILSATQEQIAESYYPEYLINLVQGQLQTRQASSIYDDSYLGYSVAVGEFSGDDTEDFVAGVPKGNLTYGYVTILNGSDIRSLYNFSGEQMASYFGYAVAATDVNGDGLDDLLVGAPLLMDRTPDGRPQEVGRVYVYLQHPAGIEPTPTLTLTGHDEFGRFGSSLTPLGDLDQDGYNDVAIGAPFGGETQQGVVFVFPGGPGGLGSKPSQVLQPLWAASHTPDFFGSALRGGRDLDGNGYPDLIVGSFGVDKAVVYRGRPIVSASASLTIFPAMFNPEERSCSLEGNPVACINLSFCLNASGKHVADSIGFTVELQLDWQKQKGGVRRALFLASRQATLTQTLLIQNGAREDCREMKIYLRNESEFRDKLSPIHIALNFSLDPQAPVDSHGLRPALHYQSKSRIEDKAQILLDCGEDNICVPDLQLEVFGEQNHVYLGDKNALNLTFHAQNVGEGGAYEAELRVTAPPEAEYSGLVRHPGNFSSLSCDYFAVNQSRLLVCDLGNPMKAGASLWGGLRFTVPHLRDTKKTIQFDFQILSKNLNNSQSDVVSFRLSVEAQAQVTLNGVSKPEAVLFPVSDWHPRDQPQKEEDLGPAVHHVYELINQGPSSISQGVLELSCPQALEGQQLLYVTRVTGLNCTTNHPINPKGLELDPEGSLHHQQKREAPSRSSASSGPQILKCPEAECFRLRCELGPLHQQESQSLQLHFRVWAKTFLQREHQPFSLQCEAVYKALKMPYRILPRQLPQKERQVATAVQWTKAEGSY
T1 sequence (P05556 21-728, chain 2 of 2): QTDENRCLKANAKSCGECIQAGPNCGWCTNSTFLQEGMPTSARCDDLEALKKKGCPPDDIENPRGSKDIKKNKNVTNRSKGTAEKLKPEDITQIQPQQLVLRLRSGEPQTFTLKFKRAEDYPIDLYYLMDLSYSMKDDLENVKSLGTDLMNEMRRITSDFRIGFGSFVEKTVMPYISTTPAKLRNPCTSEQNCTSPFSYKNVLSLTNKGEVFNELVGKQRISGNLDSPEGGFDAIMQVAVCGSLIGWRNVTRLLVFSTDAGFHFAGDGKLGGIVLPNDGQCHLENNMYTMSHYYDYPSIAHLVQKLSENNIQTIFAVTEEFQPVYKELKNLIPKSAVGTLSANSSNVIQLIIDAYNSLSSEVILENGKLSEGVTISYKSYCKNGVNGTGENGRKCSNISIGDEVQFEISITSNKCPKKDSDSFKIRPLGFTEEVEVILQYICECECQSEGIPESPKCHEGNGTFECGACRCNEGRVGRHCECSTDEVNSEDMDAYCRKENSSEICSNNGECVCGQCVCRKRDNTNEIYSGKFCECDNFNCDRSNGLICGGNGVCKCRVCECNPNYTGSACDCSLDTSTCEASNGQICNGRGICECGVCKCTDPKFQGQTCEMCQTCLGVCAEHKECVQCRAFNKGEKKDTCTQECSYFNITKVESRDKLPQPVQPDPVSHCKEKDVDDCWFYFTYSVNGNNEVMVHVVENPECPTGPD

Kd [1]: 160 nM
Kd [2]: ~30 nM
koff [3]: 0.72 s⁻¹
kon [3]: 3.8e+06 M⁻¹ s⁻¹
B1: perlecan Domain V (recombinant, C-terminal 6×His tag) (ligand)
chain: EIKITFRPDSADGMLLYNGQKRVPGSPTNLANRQPDFISFGLVGGRPEFRFDAGSGMATIRHPTPLALGHFHTVTLLRSLTQGSLIVGDLAPVNGTSQGKFQGLDLNEELYLGGYPDYGAIPKAGLSSGFIGCVRELRIQGEEIVFHDLNLTAHGISHCPTCRDRPCQNGGQCHDSESSSYVCVCPAGFTGSRCEHSQALHCHPEACGPDATCVNRPDGRGYTCRCHLGRSGLRCEEGVTVTTPSLSGAGSYLALPALTNTHHELRLDVEFKPLAPDGVLLFSGGKSGPVEDFVSLAMVGGHLEFRYELGSGLAVLRSAEPLALGRWHRVSAERLNKDGSLRVNGGRPVLRSSPGKSQGLNLHTLLYLGGVEPSVPLSPATNMSAHFRGCVGEVSVNGKRLDLTYSFLGSQGIGQCYDSSPCERQPCQHGATCMPAGEYEFQCLCRDGFKGDLCEHEENPCQLREPCLHGGTCQGTRCLCLPGFSGPRCQQGSGHGIAESDWHLEGSGGNDAPGQYGAYFHDDGFLAFPGHVFSRSLPEVPETIELEVRTSTASGLLLWQGVEVGEAGQGKDFISLGLQDGHLVFRYQLGSGEARLVSEDPINDGEWHRVTALREGRRGSIQVDGEELVSGRSPGPNVAVNAKGSVYIGGAPDVATLTGGRFSSGITGCVKNLVLHSARPGAPPPQPLDLQHRAQAGANTRPCPSHHHHHH
notes: domain: domain V; Secreted from transfected 293FT cells and purified on Ni beads; also called DV; endorepellin

Reference: patent US20100168025A1 (TEXAS A AND M UNIVERSITY SYSTEM, published 2010)
